In test [1] the target is T1, human α1-I domain-GST fusion protein (human, UniProt P56199 151-364).
T1 construct: Expressed in E. coli; not shown: glutathione S-transferase of vector pGEX4t-i (Pharmacia), with a thrombin cleavage site at the junction
The test can be described thus: ELISA; competition with biotinylated mAQC2 (competitor) for immobilized α1 I domain-GST. Background: In an ELISA, binding on a coated surface is turned into a signal by an enzyme label.

Test [2] has as its target T1, human α1-I domain-GST fusion protein. The experiment in a line: electrochemiluminescence; inhibition of α1 I domain-GST binding to type IV collagen beads (±0.007 in r14).
Test [3] concerns the target T2, α1β1 integrin (VLA-1) in lysate of α1-transfected K562 cells (human, UniProt P56199 29-1179; P05556 21-798). The test can be described thus: electrochemiluminescence; inhibition of α1β1 (K562-α1 lysate) binding to type IV collagen beads (±0.002 in r14).
For test [4], the target named is T3, human VLA-1 (α1β1 integrin) on K562 cells transfected with the α1 integrin subunit (human, UniProt P56199 29-1179; P05556 21-798).
T3 construct: whole, on cells; also called huVLA-1; K562-α1
The experiment in a line: FACS of VLA-1-expressing K562α1 cells stained with conditioned medium of transfected 293-EBNA cells; mean MFI normalized to chAQC2 blocked; average of two transfections.

The target of test [5] is T1, human α1-I domain-GST fusion protein. The test can be described thus: ELISA on immobilized α1 I domain-GST (±0.058 in r14).
In test [6] the target is T3, human VLA-1 (α1β1 integrin) on K562 …. The experiment in a line: FACS on human α1-transfected K562 cells.
The target in test [7] is T2, α1β1 integrin (VLA-1) in lysate of …. The test can be described thus: electrochemiluminescence; inhibition of α1β1 (K562-α1 lysate) binding to type IV collagen beads (±0.014 in r12).
For test [8], the target named is T1, human α1-I domain-GST fusion protein. The test can be described thus: ELISA on immobilized α1 I domain-GST (±0.015 in r12).
Test [9] has the same target. The experiment in a line: electrochemiluminescence; inhibition of α1 I domain-GST binding to type IV collagen beads (±0.011 in r12).

B1: chAQC2 (murine-human chimeric AQC2, blocked light chain; pAND099 + pAND102) (antibody, V domains shown)
VH: DVKVVESGGGLVKPGGSLKLACAASGFSFSRYTMSWVRQIPEKRLEWVATISGGGHTYYLDSVKGRFTISRDNAKNTLYLQMSSLRSEDTAMYYCTRGFGDGGYFDVWGQGTTVTVSS
VL: QIVLTQFPALMSASPGEKVTMTCSASSSVNHMFWYQQKPKSSPKPWIYLTSNLASGVPARFSGSGSGTSYSLTISSMEAEDAATYYCQQWSGNPWTFGGGTKLEIK
notes: also called Chimera
Regarding B1, the half-maximal inhibitory concentration (IC50) was determined as 30 nM in test [1], 0.027 nM in test [2] and 0.071 nM in [3]. Also, in [4], the “Relative MFI” value is 1 relative to chAQC2 blocked. Further, the EC50 came out at 0.176 nM in [5] and 0.25 nM in test [6].

B2: monoclonal antibody AQC2 (mAQC2) (antibody, mouse IgG1, V domains shown)
VH: DVKVVESGGGLVKPGGSLKLACAASGFSFSRYTMSWVRQIPEKRLEWVATISGGGHTYYLDSVKGRFTISRDNAKNTLYLQMSSLRSEDTAMYYCTRGFGDGGYFDVWGQGTTVTVSS
VL: QIVLTQFPALMSASPGEKVTMTCSASSSVNHMFWYQQKPKSSPKPWIYLTSNLASGVPARFSGSGSGTSYSLTISSMEAEDAATYYCQQWSGNPWTFGGGTKLEIK
notes: Hybridoma ATCC PTA3273; also called murine AQC2
With B2, the IC50 in test [1] came out at 38 nM; in test [7] it was 0.0726 nM; in test [9], 0.029 nM. This molecule yielded an EC50 in test [8] of 0.061 nM.

As a reminder, the IC50 is the concentration needed to halve the response being measured. The low end stands for inhibition by little substance, the high end for a need for much substance. The EC50 is the midpoint of the concentration-response curve. Read a low EC50 as greater potency.

Source of the values: patent publication US20040081651A1 (Biogen, published 2004).
